# Experimental data published in patent EP4306640A1.
# Target: human CXCR4 (C-X-C chemokine receptor type 4), endogenous on human leukemia cell lines (human) (UniProt P61073)
# Assay: cell-based or functional assay
# Chain of UniProt P61073 (P61073 whole entry): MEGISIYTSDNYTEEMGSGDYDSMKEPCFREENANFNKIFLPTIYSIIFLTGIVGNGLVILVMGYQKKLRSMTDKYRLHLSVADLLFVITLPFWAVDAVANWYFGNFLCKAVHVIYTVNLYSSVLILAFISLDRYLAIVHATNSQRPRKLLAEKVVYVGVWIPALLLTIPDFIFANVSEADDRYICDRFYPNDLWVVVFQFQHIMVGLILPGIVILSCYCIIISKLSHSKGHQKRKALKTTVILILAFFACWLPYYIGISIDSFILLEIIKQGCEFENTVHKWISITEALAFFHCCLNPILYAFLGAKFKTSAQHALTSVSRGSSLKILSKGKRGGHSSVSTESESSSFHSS
substance,measurement,value
human CXCL12α (ligand),"stimulation of migration of BV-173 cells (chemotaxis assay), half-maximal stimulation",3 nM
same,"stimulation of migration of Jurkat cells (chemotaxis assay), half-maximal stimulation",0.3 nM
same,"stimulation of migration of Nalm-6 cells (chemotaxis assay), half-maximal stimulation",0.3 nM
same,"stimulation of migration of U937 cells (chemotaxis assay), half-maximal stimulation",3 nM
